Assay results reported in doi:10.1101/2025.09.18.677151, “Structure and substrate recognition by the Twin-arginine translocation (Tat) pathway core complex” (bioRxiv, 2025).

How the values were obtained:
[1] = target: T1, E. coli TatBC complex (E. coli, UniProt P69425 1-171; P69423 1-258); assay: cryo-EM structure; purified MdoD (SUMO removed) mixed with purified E. coli Tat complex in 0.02% GDN overnight at 4°C, SEC; core region 2.4 Å (C3), focused refinement on MdoD 2.1 Å (C2); details: both partners purified
T1 construct: TatB, E. coli; amplified from E. coli genomic DNA (DSM 1116); TatC, E. coli; also called TatB3C3; (TatBC)3; source: E. coli MC4100 ΔtatABCD ΔtatE, pQE60 based vector, overexpressed; purified in GDN (His-tag resin, SEC); for the pull-down captured from GDN-solubilised membranes on His-tag resin and washed; copies: 3 + 3
T1 sequence 1: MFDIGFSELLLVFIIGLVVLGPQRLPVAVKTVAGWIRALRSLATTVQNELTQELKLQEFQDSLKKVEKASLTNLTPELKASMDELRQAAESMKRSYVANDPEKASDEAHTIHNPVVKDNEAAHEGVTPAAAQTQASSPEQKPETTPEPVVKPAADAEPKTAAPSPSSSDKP
T1 sequence 2: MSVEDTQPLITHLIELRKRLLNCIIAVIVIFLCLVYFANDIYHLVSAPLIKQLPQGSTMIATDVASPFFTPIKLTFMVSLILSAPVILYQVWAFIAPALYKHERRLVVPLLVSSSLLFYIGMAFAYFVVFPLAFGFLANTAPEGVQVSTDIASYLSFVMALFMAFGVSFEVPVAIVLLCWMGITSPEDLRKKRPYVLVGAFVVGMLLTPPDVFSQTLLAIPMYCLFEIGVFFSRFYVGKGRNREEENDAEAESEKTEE

[2] = target: the molecule itself; assay: as above
[3] = target: the molecule itself; assay: cryo-EM structure; N. salsuginis TatBC complex purified in GDN; single particle, C3 symmetry
[4] = target: the molecule itself; assay: cryo-EM structure; M. xanthus TatBC complex purified in GDN; single particle, C3 symmetry
[5] = target: T2, E. coli TatC with a C-terminal strep tag, expressed from the tatABC plasmid (E. coli, UniProt P69423 1-258); assay: quantification of Coomassie stained SDS-PAGE bands of the purified complexes; purified E. coli TatABC and TatBC loaded at 4 dilutions; bands quantified with ImageJ; three independent samples; details: both partners purified
T2 construct: TatC, E. coli; also called TatC_(strep); source: E. coli MC4100 ΔtatABCD ΔtatE, tatABC operon on a low copy number plasmid; in GDN-solubilised membranes, captured on Streptactin XT; not shown: strep tag, C-terminal, kept
T2 sequence: T1 sequence 2

[6] = target: the molecule itself; assay: cryo-EM structure; E. coli TatBC complex purified in GDN; single particle, C3 symmetry, 3.1 Å
[7] = target: the molecule itself; assay: crystal structure; selenomethionine-labelled M. xanthus TatC periplasmic domain; sitting drop, 21 °C; data to 2.0 Å

B1: E. coli MdoD, full length with its Tat signal peptide (natural protein, UniProt P40120 1-551, looked up)
chain: MDRRRFIKGSMAMAAVCGTSGIASLFSQAAFAADSDIADGQTQRFDFSILQSMAHDLAQTAWRGAPRPLPDTLATMTPQAYNSIQYDAEKSLWHNVENRQLDAQFFHMGMGFRRRVRMFSVDPATHLAREIHFRPELFKYNDAGVDTKQLEGQSDLGFAGFRVFKAPELARRDVVSFLGASYFRAVDDTYQYGLSARGLAIDTYTDSKEEFPDFTAFWFDTVKPGATTFTVYALLDSASITGAYKFTIHCEKSQVIMDVENHLYARKDIKQLGIAPMTSMFSCGTNERRMCDTIHPQIHDSDRLSMWRGNGEWICRPLNNPQKLQFNAYTDNNPKGFGLLQLDRDFSHYQDIMGWYNKRPSLWVEPRNKWGKGTIGLMEIPTTGETLDNIVCFWQPEKAVKAGDEFAFQYRLYWSAQPPVHCPLARVMATRTGMGGFSEGWAPGEHYPEKWARRFAVDFVGGDLKAAAPKGIEPVITLSSGEAKQIEILYIEPIDGYRIQFDWYPTSDSTDPVDMRMYLRCQGDAISETWLYQYFPPAPDKRQYVDDRVMS
notes: MdoD (OpgD), E. coli, precursor with the 32 residue Tat signal peptide; amplified from E. coli genomic DNA (DSM 1116); also called OpgD; source: E. coli BL21 (DE3) ΔtatABCD ΔtatE, pET28a modified, purified (His-tag resin), His6-SUMO removed with Ulp1; not shown: His6-SUMO, N-terminal, cleaved
- stoichiometry N [1]: 3
- stoichiometry N [2]: 2

B2: N. salsuginis TatC (GFP-His removed) (natural protein, Nitratifractor salsuginis)
chain: MFESMKPHLAELRQRLAISVLAVFVGFIIAFTFHNAILGWITKPLNNALIQVGKIVEKREMGTWKISGNEHNATLAPSKSPALLSDHAQSAEKLHRTLAEASQATQNPKLQKLLSQAASAAEELARNSRILRKALVKEENLTRQAVNQNLREKSFNGMITTHQVGGAFFVALKVSFFAGILMAMPVILWQLWLFIAPGLYDNEKKMVLPFVVGGSVMFLIGVLFAYYVVTPFGFQFLITFGSFLYTPLINIEDYVGFFTKILIGFGIAFELPVVAYFLALLGLITDKTLKDYFKYAIVIIFLLAAFLTPPDVLTQLLMAAPLILLYGLSILIVHYVNPYKPEEKEDDEEEEEDEFEKAEREFEALEKGSESHES
notes: TatC, Nitratifractor salsuginis, with a large periplasmic insert; gene codon-optimised and synthesised; source: E. coli strain L56, pWALDO based pTatC-GFP-His, co-overexpressed with TatB-strep or TatA-strep; purified in GDN or digitonin (Ni-NTA, TEV, Streptactin XT, SEC)
- stoichiometry N [3]: 3

B3: M. xanthus TatC (GFP-His removed) (natural protein, Myxococcus xanthus)
chain: MSLADHLTELRSRLMRCTIAVLILGTISLVFAKPIFGLLMQPVLDALPPENRSLIYTSGIEELNVLMKVGVYCGIFLTTPVILMQIWGFVSPGLYPEERRFAAPFVAFGSIAFLLGAAFCYFAVLPSMFTFLLNEEETLALEQRLDTARLRADDALRFLRLGEAEEAGRIAKETSTQLRAEGQGQAPAPEVAPAASVEMTGRLDGLGRLLDAASVGYGAQSRGVLRQAVEKRVEAVTAYEKKDFAAAAAAMDGSASLLAGIAPTRTEELAGLWRLEKELATAHAAHEAARWTRPMLSMHEQLSLVLLLILAFGIIFELPLVMALLGVVGVVKSSWLFRYQRHAFVVCLIAAAIITPTGDVVNLSLMAGPMLLCYELGVLLVWMVERRRARNSAETGITPAS
notes: TatC, Myxococcus xanthus, with a large periplasmic insert; gene codon-optimised and synthesised; source: E. coli strain L56, pWALDO based pTatC-GFP-His, co-overexpressed with TatB-strep; purified in GDN (Ni-NTA, TEV, Streptactin XT, SEC)
- stoichiometry N [4]: 3

B4: E. coli TatB expressed from the tatABC plasmid (natural protein)
chain: T1 sequence 1
notes: TatB, E. coli; source: E. coli MC4100 ΔtatABCD ΔtatE, tatABC operon on a low copy number plasmid; in GDN-solubilised membranes, co-purified
- ratio of TatB to TatC in the TatABC complex relative to the TatBC complex [5]: 0.78

B5: E. coli TatB (subunit of the overexpressed TatBC complex) (natural protein)
chain: T1 sequence 1
notes: TatB, E. coli; amplified from E. coli genomic DNA (DSM 1116); residues 1-63 modelled in the cryo-EM map; source: E. coli MC4100 ΔtatABCD ΔtatE, pQE60 based vector, co-overexpressed with TatC; purified in GDN (His-tag resin, SEC)
- binding result [6]: binds

B6: M. xanthus TatC periplasmic domain (residues 127-303) (domain or fragment, Myxococcus xanthus, UniProt Q2PHA2 127-303, looked up)
chain: SMFTFLLNEEETLALEQRLDTARLRADDALRFLRLGEAEEAGRIAKETSTQLRAEGQGQAPAPEVAPAASVEMTGRLDGLGRLLDAASVGYGAQSRGVLRQAVEKRVEAVTAYEKKDFAAAAAAMDGSASLLAGIAPTRTEELAGLWRLEKELATAHAAHEAARWTRPMLSMHEQLS
modifications: selenomethionine-labelled
notes: TatC, Myxococcus xanthus, periplasmic domain, residues 127-303; also called M. xanthus insert; M. xanthus periplasmic domain; source: E. coli B834 (DE3), pET15b, purified (Ni-NTA, TEV, SEC)
- stoichiometry N [7]: 3
